Holding throughout (test): two-hybrid; pairwise split-ubiquitin yeast two-hybrid of four baits (slToc159-1AGM, -1GM, -2AGM, -2GM) with isolated prey vectors in NMY51; qualitative PXG assay and quantitative β-galactosidase activity in 96-well plates, 60 min, mean of three experiments
The target in assay [1] is slToc159-1GM bait protein (tomato (Solanum lycopersicum)).
Assay [2] has as its target slToc159-2GM bait protein (tomato (Solanum lycopersicum)).
The target in assay [3] is slToc159-2AGM bait protein (tomato (Solanum lycopersicum)).
The target of assay [4] is slToc159-1AGM bait protein (tomato (Solanum lycopersicum)).

In turn, “photosystem II subunit S (natural protein)” had a decrease in interaction strength (β-galactosidase activity) against slToc159-1AGM in assay [1] of 76.6%.
Take “Photosystem I reaction center subunit IV A (natural protein)”: in assay [2], the decrease in affinity (β-galactosidase activity) against Toc159-2AGM is 53.7%.
Turning to “Heat shock cognate 70 kDa protein (natural protein)”, the increase in interaction strength (β-galactosidase activity) against slToc159-2GM in assay [3] was found to be 406%.
As to “thiamine biosynthesis protein (ThiC) (natural protein)”, the relative increase in interaction strength (β-galactosidase activity) against slToc159-1GM in assay [4] worked out at 476%. Besides, the increase in interaction strength (β-galactosidase activity) against slToc159-2GM in assay [3] turned out to be 81.6%.
Consider “RuBisCO small subunit 1 (natural protein)”, for which the increase in interaction strength (β-galactosidase activity) against slToc159-2AGM in assay [2] was 79.9%.
Consider “Photosystem I subunit O (natural protein)”, for which the decrease in affinity (β-galactosidase activity) against Toc159-2AGM in assay [2] is 72.7%. For the same substance, in assay [1], the decrease in interaction strength (β-galactosidase activity) against slToc159-1AGM was found to be 93.8%.
Take “Cell division protein FtsZ (natural protein)”: the relative increase in interaction strength (β-galactosidase activity) against slToc159-1GM in assay [4] amounted to 66.1%.
For “Photosystem I reaction center subunit III (natural protein)”, the decrease in affinity (β-galactosidase activity) against Toc159-2AGM in assay [2] came to 86%. Further, in assay [1], the decrease in interaction strength (β-galactosidase activity) against slToc159-1AGM is 46.3%.
Take SufE-like protein 1 (natural protein): the increase in interaction strength (β-galactosidase activity) against slToc159-2GM in assay [3] came out at 509%.
Substance “Chlorophyll a-b binding protein CP24 (natural protein)” yielded a decrease in affinity (β-galactosidase activity) against Toc159-2AGM in assay [2] of 75.5%.
“Chlorophyll a-b binding protein 8 (natural protein)” had a decrease in interaction strength (β-galactosidase activity) against slToc159-1AGM in assay [1] of 49.2%.
In the case of “RuBisCO small subunit 2A (natural protein)”, the increase in interaction strength (β-galactosidase activity) against slToc159-2AGM in assay [2] was found to be 615%. This substance also registered a decrease in interaction strength (β-galactosidase activity) against slToc159-1AGM in assay [1] of 62.4%.
For the substance “Stearoyl-[acyl-carrier-protein] 9-desaturase (natural protein)”, in assay [4], the relative increase in interaction strength (β-galactosidase activity) against slToc159-1GM was 866%. Moreover, the increase in interaction strength (β-galactosidase activity) against slToc159-2GM in assay [3] turned out to be 81.1%.
Take “Photosystem I reaction center subunit II (natural protein)”: the increase in interaction strength (β-galactosidase activity) against slToc159-2AGM in assay [2] was found to be 57.8%. This substance gave a decrease in interaction strength (β-galactosidase activity) against slToc159-1AGM in assay [1] of 62%.
Regarding “Chlorophyll a/b binding protein Cab-3C (natural protein)”, the increase in interaction strength (β-galactosidase activity) against slToc159-2AGM in assay [2] was 1360%. Further, in assay [1], the decrease in interaction strength (β-galactosidase activity) against slToc159-1AGM was 38.4%.
Glutamine synthetase (natural protein): the relative increase in interaction strength (β-galactosidase activity) against slToc159-1GM in assay [4] is 28.8%.
“Photosystem II 23 kDa protein (natural protein)” came in with a decrease in affinity (β-galactosidase activity) against Toc159-2AGM in assay [2] of 89.2%. The same substance had a decrease in interaction strength (β-galactosidase activity) against slToc159-1AGM in assay [1] of 88.7%.
For the substance “Hop-interacting protein (THI026) (natural protein)”, the increase in interaction strength (β-galactosidase activity) against slToc159-2GM in assay [3] was determined as 152%.
In assay [1], “Chlorophyll a-b binding protein (CAB11) (natural protein)” displayed a decrease in interaction strength (β-galactosidase activity) against slToc159-1AGM of 20.7%.
On to “Serine hydroxymethyl transferase (natural protein)”, for which the increase in interaction strength (β-galactosidase activity) against slToc159-2GM in assay [3] is 889%.
In the case of “3-oxoacyl-[acyl-carrier-protein] reductase (natural protein)”, the increase in interaction strength (β-galactosidase activity) against slToc159-2GM in assay [3] worked out at 61.7%.
As to “Chlorophyll a-b binding protein 7 (natural protein)”, in assay [2], the increase in interaction strength (β-galactosidase activity) against slToc159-2AGM worked out at 21.7%. The substance further came in with a decrease in interaction strength (β-galactosidase activity) against slToc159-1AGM in assay [1] of 65.4%.
In assay [2], “RuBisCO small subunit 3 (natural protein)” displayed a decrease in affinity (β-galactosidase activity) against Toc159-2AGM of 37.1%. The same substance came in with a decrease in interaction strength (β-galactosidase activity) against slToc159-1AGM in assay [1] of 24.5%.
